Laboratory results published in PMC6123785.

Columns and labels:
[1] = target: parathyroid hormone receptor 1 BRET-biosensor PTHR1_(Nluc/Halo618) (UniProt Q03431)
[2] = target: parathyroid hormone receptor 1 BRET-biosensor PTHR1_(Nluc/Halo618) (UniProt Q03431); remark: listed apart in the source
[3] = target: PTHR1 wild-type receptor (UniProt Q03431)

## PTH(1-34) (peptide)
[1]
  change in intramolecular BRET of the PTHR1 (Nluc/Halo618) sensor in intact cells, 96-well plate, 37 °C, saturating ligand (Fig. 3d); serial dilutions for a concentration-response curve (Fig. 3e): 10%
[2]
  Supplementary Figure 6f: pEC50 of PTH(1-34), PTHR1 mediated cAMP response (FRET-based H187-EPAC cAMP sensor co-transfected with the biosensor PTHR1Nluc/Halo) (pEC50 (-log M)): 7.57
[3]
  Supplementary Figure 6f: pEC50 of PTH(1-34), PTHR1 mediated cAMP response (FRET-based H187-EPAC cAMP sensor co-transfected with the wild-type receptor) (pEC50 (-log M)): 9.52
